Measured values reported in patent publication US20090202533A1 (CSL, published 2009).

T1: murine IL-11R on Ba/F3 cells stably transfected with murine IL-11R/gp130 (murine, UniProt Q64385 24-432)
T1 sequence (looked up): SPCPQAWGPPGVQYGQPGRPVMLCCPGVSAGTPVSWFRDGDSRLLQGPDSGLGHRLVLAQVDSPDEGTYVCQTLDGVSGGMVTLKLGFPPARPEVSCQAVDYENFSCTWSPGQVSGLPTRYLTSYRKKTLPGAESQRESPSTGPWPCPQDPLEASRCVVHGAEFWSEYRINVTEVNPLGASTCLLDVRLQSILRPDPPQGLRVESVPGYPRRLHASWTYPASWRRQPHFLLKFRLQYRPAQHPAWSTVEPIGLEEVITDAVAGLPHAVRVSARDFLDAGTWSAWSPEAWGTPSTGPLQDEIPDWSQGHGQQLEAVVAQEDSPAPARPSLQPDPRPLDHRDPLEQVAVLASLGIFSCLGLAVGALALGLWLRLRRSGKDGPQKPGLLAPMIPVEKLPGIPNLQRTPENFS


Key:
IL-11R-Fc [1] = assay: competition ELISA on IL-11R-Fc
[2] = target: T1, murine IL-11R on Ba/F3 cells stably …; assay: cell-based or functional assay
IL-11R-Fc [3] = assay: IL-11R binding ELISA

Molecule	fold higher binding affinity than murine W147A IL-11 (IL-11R-Fc [1]) [fold]	ability to antagonize IL-11-induced Ba/F3 cell proliferation, relative to non-PEGylated mutein [2] [fold]	fold reduction of binding affinity relative to non-PEGylated mutein (IL-11R-Fc [3]) [fold]
IL-11 mutein of SEQ ID NO: 1 (AMSAG at positions 58-62 of mature murine IL-11 replaced with PAIDY, tryptophan at position 147 replaced with alanine), N-terminal His-tagged (from UniProt P47873 22-199) (ligand)	20		
PEGylated mutein (mutein of SEQ ID NO: 3 with a single 40 kDa PEG moiety on the Cys introduced at position 147) (ligand, mPEG2-maleimide (single 40 kDa PEG moiety) on the Cys introduced at position 147 (position as printed, numbering of mature murine IL-11)) VSSDPRADLDSAVLLTRSLLADTRQLAAQMRDKFPADGDHSLDSLPTLPAIDYTLGSLQLPGVLTRLRVDLMSYLRHVQWLRRAGGPSLKTLEPELGALQARLERLLRRLQLLMSRLALPQAAPDQPVIPLGPPASACGSIRAAHAILGGLHLTLDWAVRGLLLLKTRL		~10	5
